According to the supplement of paper PMC9112550, “Optimization of the antimicrobial peptide Bac7 by deep mutational scanning” (BMC Biology, 2022):

System: Escherichia coli TOP10
Assay: shrunken log2 fold change of peptide-encoding DNA abundance (4.5 h post-induction vs induction); higher = less antimicrobial activity (less host growth inhibition)
Conditions: time post-induction: 4.5 h; library: site-saturation at positions 5, 18, 19, 20
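Also: peptides expressed intracellularly from a pBAD plasmid library in pooled LB shake-flask culture, induced with 0.3% L-arabinose, DNA abundance read by NGS, three biological replicates, DESeq2 with apeglm shrinkage.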

Sequence	shrunken log2 fold change
RRIRDRPPRLPRPRPRPHIPPRP	2.08
RRIRCRPPRLPRPRPRPRQNPRP	0.226
RRIRNRPPRLPRPRPRPSHQPRP	-0.374
RRIRLRPPRLPRPRPRPGIYPRP	-0.318
RRIRARPPRLPRPRPRPGSHPRP	0.101
RRIRHRPPRLPRPRPRPRDSPRP	0.0922
RRIRMRPPRLPRPRPRPISPPRP	0.0263
RRIRCRPPRLPRPRPRPSRMPRP	-0.144
RRIRERPPRLPRPRPRPECVPRP	0.162
RRIRARPPRLPRPRPRPGGCPRP	0.81
RRIRIRPPRLPRPRPRPQWKPRP	-0.186
RRIRSRPPRLPRPRPRPANRPRP	0.223
RRIRDRPPRLPRPRPRPRAYPRP	-0.212
RRIRIRPPRLPRPRPRPGRMPRP	0.198
RRIRWRPPRLPRPRPRPWISPRP	-0.124
RRIRTRPPRLPRPRPRPFMDPRP	0.108
RRIRWRPPRLPRPRPRPKCNPRP	0.136
RRIRKRPPRLPRPRPRPANIPRP	0.214
RRIRERPPRLPRPRPRPMCTPRP	0.107
RRIRPRPPRLPRPRPRPSFNPRP	-0.629
RRIRHRPPRLPRPRPRPQMMPRP	-0.279
RRIRYRPPRLPRPRPRPGWMPRP	-0.000507
RRIRNRPPRLPRPRPRPSMWPRP	-0.0524

Sequence	shrunken log2 fold change
RRIRHRPPRLPRPRPRPDMMPRP	-0.21
RRIRCRPPRLPRPRPRPYRHPRP	-0.982
RRIRYRPPRLPRPRPRPPPNPRP	0.873
RRIRTRPPRLPRPRPRPTDFPRP	-0.405
RRIRSRPPRLPRPRPRPADIPRP	0.0495
RRIRYRPPRLPRPRPRPTCFPRP	-0.222
RRIRQRPPRLPRPRPRPKMVPRP	-0.0201
RRIRPRPPRLPRPRPRPQGVPRP	0.07
RRIRLRPPRLPRPRPRPPQPPRP	0.816
RRIRVRPPRLPRPRPRPGQEPRP	0.0329
RRIRRRPPRLPRPRPRPPGRPRP	1.52
RRIRYRPPRLPRPRPRPYVYPRP	-0.26
RRIRMRPPRLPRPRPRPLRMPRP	1.88
RRIRERPPRLPRPRPRPQDAPRP	0.0745
RRIRQRPPRLPRPRPRPKVIPRP	-0.0316
RRIRHRPPRLPRPRPRPIARPRP	0.116
RRIRDRPPRLPRPRPRPHNAPRP	-0.0997
RRIRARPPRLPRPRPRPQWPPRP	0.366
RRIRARPPRLPRPRPRPDRLPRP	-0.0424
RRIRQRPPRLPRPRPRPNRPPRP	-0.056
RRIRERPPRLPRPRPRPACTPRP	-0.224
RRIRWRPPRLPRPRPRPYITPRP	-0.13
RRIRPRPPRLPRPRPRPITVPRP	-0.298

Sequence	shrunken log2 fold change
RRIRPRPPRLPRPRPRPAAWPRP	0.377
RRIRPRPPRLPRPRPRPYADPRP	0.0774
RRIRHRPPRLPRPRPRPKFQPRP	-0.0213
RRIRTRPPRLPRPRPRPECFPRP	0.146
RRIRERPPRLPRPRPRPQICPRP	0.172
RRIRERPPRLPRPRPRPAWYPRP	-0.179
RRIRVRPPRLPRPRPRPFPLPRP	-0.566
RRIRMRPPRLPRPRPRPRNNPRP	0.063
RRIRMRPPRLPRPRPRPAFRPRP	0.214
RRIRLRPPRLPRPRPRPHDPPRP	-0.459
RRIRERPPRLPRPRPRPTIQPRP	-0.0576
RRIRFRPPRLPRPRPRPFHSPRP	-0.0346
RRIRPRPPRLPRPRPRPCHMPRP	-0.0442
RRIRYRPPRLPRPRPRPVNYPRP	-0.458
RRIRFRPPRLPRPRPRPEEYPRP	-0.00963
RRIRWRPPRLPRPRPRPHQCPRP	-0.112
RRIRHRPPRLPRPRPRPMPTPRP	0.0549
RRIRKRPPRLPRPRPRPYFQPRP	-0.265
RRIRERPPRLPRPRPRPDTKPRP	-0.00108
RRIRFRPPRLPRPRPRPREAPRP	0.115
RRIRNRPPRLPRPRPRPYIRPRP	0.00719
RRIRHRPPRLPRPRPRPWVMPRP	-0.166
RRIRHRPPRLPRPRPRPHPVPRP	-0.248

Sequence	shrunken log2 fold change
RRIRHRPPRLPRPRPRPMLRPRP	-0.0571
RRIRQRPPRLPRPRPRPMMMPRP	-0.327
RRIRMRPPRLPRPRPRPNKEPRP	0.127
RRIRRRPPRLPRPRPRPDRAPRP	0.322
RRIRDRPPRLPRPRPRPMHVPRP	-0.00476
RRIRRRPPRLPRPRPRPAKFPRP	0.217
RRIRIRPPRLPRPRPRPDQRPRP	0.0228
RRIRVRPPRLPRPRPRPHIRPRP	-0.503
RRIRWRPPRLPRPRPRPGTGPRP	0.188
RRIRKRPPRLPRPRPRPTSDPRP	0.492
RRIRLRPPRLPRPRPRPEWNPRP	-0.083
RRIRRRPPRLPRPRPRPDCHPRP	0.619
RRIRHRPPRLPRPRPRPCDNPRP	-0.207
RRIRVRPPRLPRPRPRPSIAPRP	-0.0218
RRIRRRPPRLPRPRPRPMMCPRP	0.102
RRIRMRPPRLPRPRPRPRWPPRP	1.06
RRIRWRPPRLPRPRPRPSALPRP	0.678
RRIRGRPPRLPRPRPRPTKNPRP	0.69
RRIRMRPPRLPRPRPRPNHSPRP	-0.38
RRIRSRPPRLPRPRPRPMGSPRP	-0.205
RRIRCRPPRLPRPRPRPVCAPRP	0.264
RRIRFRPPRLPRPRPRPRNDPRP	-0.218
